The source of these data is PMC11655644, “Cardiocutaneous syndrome is caused by aggregation of iASPP mutants” (Cell Death Discovery, 2024).

Data set [1] addresses iASPP CTD N813A Y814A double mutant (human) (UniProt Q8WUF5). Put plainly: ITC; VP-ITC, 12 °C, 25 steps of 10 µl; 450 µM iASPP CT peptides titrated to 30 µM purified ASPP CTDs; 25 mM HEPES pH 7.5, 150 mM NaCl, 500 µM TCEP.
For data set [2], the target named is iASPP CTD WT (C-terminal domain, AA625-828) (human) (UniProt Q8WUF5). Described as above.
Data set [3] deals with T1, iASPP CTD WT (C-terminal domain, AA625-828) (human, UniProt Q8WUF5 625-828).
T1 construct: iASPP (encoded by PPP1R13L), C-terminal domain with four ankyrin repeats and an SH3 domain, AA625-828 (CTD starting from L625); also called iASPP WT CTD; source: E. coli BL21(DE3) Rosetta, purified (IMAC, TEV cleavage, reverse Ni, HiTrap Q, Superdex 75 SEC); not shown: His10, N-terminal, cleaved
T1 sequence (looked up): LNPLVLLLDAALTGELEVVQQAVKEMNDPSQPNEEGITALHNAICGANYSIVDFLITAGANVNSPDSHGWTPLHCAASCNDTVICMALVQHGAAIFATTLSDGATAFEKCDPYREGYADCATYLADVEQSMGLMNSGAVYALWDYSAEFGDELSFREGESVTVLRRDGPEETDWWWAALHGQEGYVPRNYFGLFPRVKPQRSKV
The data set is described as follows: thermal shift assay; 20 µM CTD with SYPRO Orange and 20 or 40 µM PP1α (AA311-330) peptide in assay buffer; 4 to 99 °C at 0.1 °C/s. The conditions noted are these: both partners purified.

“iASPP WT peptide spanning the sequence around A620”: the Kd in data set [1] turned out to be 5000 nM; in data set [2], 743 nM. For “iASPP A620P peptide spanning the sequence around the mutation” the same measures were 5000 nM and 135 nM.

B1: PP1α (AA311-330) peptide (peptide, UniProt P62136 311-330, looked up)
peptide: GLNPGGRPITPPRNSAKAKK
notes: PP1α (protein phosphatase 1 catalytic subunit alpha), peptide AA311-330; also called PP1α peptide
In the case of B1, the “increase of the melting temperature with peptide” value in data set [3] was 10 °C.
